Data taken from PMC8699518 (Biomolecules, 2021).

Experiments:
[1] = target: T1, recombinant glycosylated IFN-β (Pharmapark, Moscow, Russia) (Homo sapiens, UniProt P01574, glycosylated); assay: ELISA; Kd by the method of Friguet with the Klotz equation; murine antibody and IFN-β in solution at equilibrium, free antibody measured by ELISA
T1 construct: human interferon beta, glycosylated form (IFN-β-1a); also called IFN-β-1a; IFNβ-1a; source: bought: Pharmapark

E. coli-HuIFN-γ = target: T2, E. coli-HuIFN-γ (Homo sapiens, UniProt P01579); assay: ELISA; indirect ELISA of the hybridoma panel; antigens adsorbed overnight at 4 °C in PBS pH 7.2 at 2 μg/mL, 50 μL/well; anti-mouse immunoglobulin-HRP, OD450
T2 construct: human interferon gamma expressed in E. coli; source: expressed in E. coli
T2 sequence (P01579 24-161): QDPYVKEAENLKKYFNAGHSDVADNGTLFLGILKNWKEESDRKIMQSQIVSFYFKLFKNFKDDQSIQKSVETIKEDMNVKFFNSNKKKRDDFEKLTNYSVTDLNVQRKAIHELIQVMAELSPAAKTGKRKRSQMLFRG

T1 sequence (P01574 22-187): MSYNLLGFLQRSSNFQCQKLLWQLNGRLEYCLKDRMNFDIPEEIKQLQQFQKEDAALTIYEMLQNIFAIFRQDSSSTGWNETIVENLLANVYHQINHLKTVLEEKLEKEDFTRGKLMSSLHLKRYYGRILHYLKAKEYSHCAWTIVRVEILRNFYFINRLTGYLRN

B1: murine monoclonal antibody B16 against IFN-β (antibody, V domains shown)
VH: EVKLVESGGGLVQPGGSLKLSCAASGFTFTSYTMSWVRQTPEKRLEWVAYISNGGGSTYYPDTVKGRFTISRDNAKNTLYLQMSSLKSEDTAMYYCARLDWVFAYWGQGTLVTVSA
VL: DIVMTQSHKFMSTSVGDRVSITCKASQDVGTAVAWYQQKPGQSPKLLIYWASTRHTGVPDRFTGSGSGTDFTLTISNVQSEDLADYFCLQYSSFPYTFGGGTKLEIK
notes: VH of murine B16; mouse IgG heavy-chain constant region; VL of murine B16; mouse kappa light-chain constant domain (all L-chains of the panel were of the kappa isotype); Member of the hybridoma panel B1-B21; also called murB16; prototype mouse antibody; source: hybridoma B16
Kd [1]: 3.8 nM | binding result (E. coli-HuIFN-γ): no binding
